Measured values taken from patent US20200164059A1.
Residue numbers refer to the chain shown, from its start. Names and notes keep the numbering of the source.

B1: AMMO1 containing a Q1N heavy chain mutation (antibody, V domains shown)
VH: NVQLVQSGADVKKPGASVKVSCKASGYTFIHFGISWVRQAPGQGLEWMGWIDTNNGNTNYAQSLQGRVTMTTDTSTGTAYMELRSLSTDDTAVYFCARALEMGHRSGFPFDYWGQGVLVTVSP
VL: SYELTQPPSVSVAPGQRATITCGGHNIGAKNVHWYQQKPGQAPVLVIQYDSDRPSGIPERFSGSNSGSTATLTISRVEAGDEADYYCQVWDSGRGHPLYVFGGGTKVTVL
B2: AMMO1 Fab (Fab, V domains shown)
VH: B1 VH with N1Q
VL: B1 VL
modifications: not checked

Legend:
[1] = target: EBV gH/gL heterodimer, recombinant ectodomain (Epstein Barr virus); experiment: BLI kinetics, pH 7.4, ligand AMMO1Q1NHC Mab, analyte gH/gL; KD M x10^-9
[2] = target: EBV gH/gL heterodimer, recombinant ectodomain (Epstein Barr virus); experiment: BLI kinetics, pH 7.4, ligand AMMO1Q1NHC Mab, analyte gH/gL; KA M^-1 x10^7
[3] = target: EBV gH/gL heterodimer, recombinant ectodomain (Epstein Barr virus); experiment: BLI kinetics, pH 7.4, ligand AMMO1Q1NHC Mab, analyte gH/gL; kon (1/Ms) x10^5
[4] = target: EBV gH/gL heterodimer, recombinant ectodomain (Epstein Barr virus); experiment: BLI kinetics, pH 7.4, ligand AMMO1Q1NHC Mab, analyte gH/gL; koff (1/s) x10^-3
[5] = target: T1, EBV gH/gL heterodimer, recombinant ectodomain (Epstein Barr virus); experiment: BLI kinetics, pH 7.4, ligand gH/gL, analyte AMMO1 Fab; KD M x10^-9
[6] = target: T1, EBV gH/gL heterodimer, recombinant …; experiment: BLI kinetics, pH 7.4, ligand gH/gL, analyte AMMO1 Fab; KA M^-1 x10^7

Row | Binder | Kd [1] [nM] | Ka [2] [M⁻¹] | kon [3] [M⁻¹ s⁻¹] | koff [4] [s⁻¹] | Kd [5] [nM] | Ka [6] [M⁻¹]
1 | B1 | 0.16 | 6.34e+09 | 244000 | 3.85e-05 | – | –
2 | B2 | – | – | – | – | 0.12 | 8.12e+09
